Each substance was assayed against CD20 (human) (UniProt P11836) (assay: cell-based or functional assay).
Sequence of UniProt P11836 (P11836 whole entry): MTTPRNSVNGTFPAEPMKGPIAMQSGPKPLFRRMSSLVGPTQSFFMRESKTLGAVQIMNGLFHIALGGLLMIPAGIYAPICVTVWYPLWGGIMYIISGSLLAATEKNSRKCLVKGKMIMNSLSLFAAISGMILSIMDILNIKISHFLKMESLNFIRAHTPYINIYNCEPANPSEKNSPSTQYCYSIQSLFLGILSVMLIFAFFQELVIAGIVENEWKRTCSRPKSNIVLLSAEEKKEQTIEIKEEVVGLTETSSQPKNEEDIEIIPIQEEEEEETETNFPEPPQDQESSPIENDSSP

Mean normalised apoptosis % (Ramos cells), with cross-linking mAb	Mean normalised apoptosis % (Ramos cells), without cross-linking mAb	Substance
278%		mAb1 IgG1 (equivalent to rituximab), unmodified IgG1 control (antibody)
359%	106%	mAb1 IgG1 mutant C220G (antibody)
332%	78%	mAb1 IgG1 mutant G137E-G138S (antibody)
322%	106%	mAb1 IgG1 mutant H224P (antibody)
